Reference: the supplement of paper PMC12636428

Test system: Saccharomyces cerevisiae
Assay: transcriptional activation domain activity (GFP:mCherry ratio, weighted mean of sorted bins, harmonized to initial dataset scale) (arbitrary fluorescence ratio units); higher = stronger transcriptional activation
Conditions: beta-estradiol 1 µM; induction time 4 h
Summary of the method: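 Each value is an activation activity: the read-weighted mean of bin median fluorescence, averaged across barcodes, then mapped linearly to the initial dataset scale. The tiles, fused to an estradiol-inducible synthetic transcription factor, sat at the yeast URA3 locus in GFP-reporter diploids. Cells spent 4 hours at 30 °C in SC with 1 uM beta-estradiol before sorting into 8 GFP:mCherry bins, and tiles below 50 reads were removed.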

Row | Sequence | transcriptional activation domain activity
1 | GVFILCRKRIVYMDGWRVWGVLIFRLFTWLFLGWLKIARGLGLGPALMMFLWL | 46200
2 | GVFVLLEQYCGINFYGLRKHGGTASMCPLGGTLRSWAYRFVAISYPPKRMVNG | 27600
3 | GVLALSPCDDTTLKATMGVIEELLIYLYFAGQMRELFYWACRVVNLSVHHGHA | 69100
4 | GVLFCLSCLSFINLSFFLGGGCLFSFSFLFPALVWRYAFFLLVLDYRRILNIP | 36900
5 | GVLMCYYSRSHNFDVAKRHFQRILNLLPLLKSTPNIFPLYGLIFSTMGLLVLI | 62600
6 | GVLRLFQICLPCFAAVDFVQGFVRYLYHIPNFNGVYETKMWVWVGLIICLIFK | 53900
7 | GVMIVRKRLLIAIATVYGSPDRGLRRIIQSIGKVLWRHGLLSDQFYSAGEIFS | 69800
8 | GVNAIGRRSSFQDVEAGKGGLIVPLRHLPPRGEDAGLVLQVHLNRAVSKLARM | 65200
9 | GVPIWRLTGETWNWKEIVDRHPLTGKVVRRRSLKWGMACYRFWWVVWGCLFYI | 59300
10 | GVRKDRQQMYFILATNSMIDLGFVVASFVPLVLLWIGGMGYLRVVWRVTLGLG | 51400
11 | GVSMGSGYFFMVWLTMWLYSELNFWVIDGVCSLVEMQWMPFFILSWIICQVAG | 50800
12 | GVVWCGVIFGFVAFHILCLFDVFFSFFFFFFEFWFWFFGFVYLNGLGWVGVGW | 40100
13 | GWAFGTKNEDGFQLFDCTGEALGVILRLSHILRHVTTFWRLRTAVDLLLQAQC | 58900
14 | GWFGAVFGVLYFFLFIFGITSVYIGFSFLLYSICLSHGTVWHPLCQFHFFYFI | 28100
15 | GWFYFNVLRHAELMVFTIFSPEHVTIWALRQHSVARLIRALCPEKLSMSHGFL | 32400
16 | GWKGRGKSGGRGRKTSGGGLKTERKSGGVSKASGGGGSSSRGGRGAGAGAGAG | 14100
17 | GWKYIILAACDVEGNFLVVKVGLFSTTILLVMTLRYQAYQYTNLLSCMLLDAW | 43000
18 | GWNTHRAQTYTQLAKHLQSHGFHCKQYLGWLCHNIVAIEVYWMMIHLKRILPL | 56300
19 | GWVVILSSRCRIKTSVSRERLKMDVFWLIESIGLTVEYWRIVWDLRATYHFLR | 33000
20 | GYCLKIRDRFFIFLWHCWVRGIVVTPFGSKIISGLSFESIPQSSCVLIQNVTI | 28400
21 | GYDDTVVLDGCYAAAIRWKSFAYVSTAVRISWKRYLMRFLLRISPWLTIIFSV | 57600
22 | GYIGLSSGYFWSGLLYNVSITISLYCLAMFWVCLHDDLVPFRPVPKFLVIKLV | 53000
23 | GYIVFLSMVMIHTDSRLDHLGKRSVLSEENSKNSWQLLVLFLHQLSTYWLLPK | 57900
24 | GYLHHILKLFDCAFGISYPQLHHVLEVRTRALLLAGLNLTFVLDGPLPMWKAA | 54900
25 | GYRIVKMLGTVYGITVRSRNWAAGLGMVLKSVVGGELRWFTNLLYTARNDAIG | 48300

Row | Sequence | transcriptional activation domain activity
26 | GYVYVSGFLALVIVVSTYFYMLSRLVLLVLPFLYLRSLSPAAYHVVHWTSFIP | 61000
27 | HAARALSLPSISPQFFVLLHKLSFPLLPFWLPMYFLLCITLPSSWLVLLYLFL | 37800
28 | HAEPGTGWACVKHTSDCTAVKKASGIPGRNFHRRPKYSVVVSAGERTWKAKQC | 52400
29 | HAGTMESHPHTNIHEELKEFLSGDLIEAEDNAKLMFGDDNSNPADYLLEFGSG | 72500
30 | HALRTFVYKAAIIPISLFLVHFRRAFSCLCFCALSGFPRCHLTLLSIMFIFSL | 53700
31 | HAQGEGEYKAAQAEGYAEGTQDRFGGKKDAVIGALTGDRKQEASGTLIPRLKL | 34400
32 | HAQPRAGDSTRPQESASSSDRPADASGEGGGISKKKKAKRSAAKEEGAGAEDP | 37300
33 | HARLKIIETATKAWSGALDADIKTKMAQSTAGFSGADVKVRAPHPLWDIHRPL | 37200
34 | HASAAPTATPAAPTVEKAKPKSREASPAKPKSPERRRPASPAPAAAVPEPVAA | 32900
35 | HAVTYWMCLELTIHLFYTFNRRSTLYFWSILVSICSIISMTILLELIIFVYPL | 56200
36 | HCCRLLFLLFLFLFFFLLLFICFFLRLLRLLFPHRNTNLTRPIADPIIPIIPP | 46900
37 | HCIEAGIKLVSQFIDMYKEFSPGGKLCQVCWMLTNFSMNDFLLGVMVLCLVIH | 56200
38 | HCLTFHQTSKLTHILLTYRQSILVTVYSHLLLLDHSSQVWWRWMNIFFTLVIW | 69500
39 | HCNGLLGNADLFEDPYQDELTSELHVLVTERLVNSWKDTILQQLCSCQDTTLS | 83700
40 | HDDSFIESEEWLSKFIMDSQIDNDLKLNINHFNDIGFNNLHPQNPTTHSEPRN | 117000
41 | HDLLVDSLRLVMELLKAPGGLSVHALTAHLNILSFTVRLLDLCLDMALETPHH | 84900
42 | HEDQKLREDQEARLRAVEEFEAVQMGLSVKTGASARVIGRQGGRIVAEEEQHV | 26100
43 | HELFALYNLLYFRKLLLPRVEVIWSPRLTLCAGICELSKDPKTGKFTRIRLKL | 47000
44 | HEQKICAKYGSDVIFADNIDGGDSDEDERSTSCTCGKLRAIVARVMVAIGGDL | 48400
45 | HERLKLCNYQQAPDNIWCQYWFMGSFLVFFSNLDAVIDLPVMILLDLMPQICF | 44100
46 | HESDDFWRENASKLNEKDYEQLKLVPLHMFAPDWPLNCLLLRILVRLLSTEDP | 30700
47 | HESEESSDKKGKKKAKIEEEKEEEKEAEEEKAEEVEEAEEAEEVGEVGEEAAV | 45400
48 | HFAFESLAQTKHLERICMLSIRFVYVYAPHGEPIQLVVGFLICLLSNSPVSNG | 55200
49 | HFAGLVILGVFLMFINAIVLWPILKSFHDCKHLIKVWFFWMIYCLLFVLYIFC | 72600
50 | HFILLHCNQLKNWFNNNQITWVIPKIGKCSHKIQVVSSHVLRAVHLFSQKYYL | 58700

Row | Sequence | transcriptional activation domain activity
51 | HFILTGSDLGWVLVYFDYDDRIYIFLMEWCKLNCYWIILMYIWNILPTALLLQ | 34300
52 | HFILTYLLLFMSVPFEFVMASFEFFHLIHCLKFPNTFYSFFFSFVFFLRHFVF | 56700
53 | HFLGALIMLLGGYFHANLIHFGSYIWPSFLVWGLDRLIRLARVVYFNHLYFGF | 34500
54 | HFLLLPSLFLFSSFLPFLTSLPPHSPFFFLSFLFFSPLFSLFFLFINSTHFLP | 41700
55 | HFNSVTTTYFKDGQSFYDILKCILPCIVDFLPKNSILVHCICAYLHFRILVGL | 53500
56 | HFPKRSFRHWVGLMFFSFLTCCTLLLQFRAAVTLTVNSHLPWITRSGLWYLVL | 68800
57 | HFSLLWPPHCSLWCTLFFLLIGHFVFILCLCYSVFFSFPSFLLIVSCFLLCFP | 37800
58 | HFSPSLSISSLPSLCCLFFFIIFSTSLLWSFFPLPYLTSPYLTLPYTTFFLFP | 48000
59 | HFVELSTILGIIILHSPAICLQVVLLLFCGLHSVVVALMLDRVPPLIYLAFFV | 66100
60 | HGAPPPPPPPPPPPPPVAGGPPPPPPPPPPGGAPPPPPPPPPPGGGGSAPLPA | 44500
61 | HGEERGWIYLVQYRGIAWLLRRLACCRFEILAIFHLSNLNHPVNVLADSYDRE | 19700
62 | HGPMFHFSISNWVEGAKLAGHGNPTGHNPELILNNFRTPLGLLTAHLFKTMFP | 52200
63 | HGRARPSRASASVPARKKTKSKVKKRASAAVVGSDDEDGEERPKKRRGGGGGA | 33100
64 | HGSTLTTIMIQVSEVMILPSFFQELLDTIRTRCPRVVNFMIWFQVWNWMMVPV | 73300
65 | HGTHCSGTVAGKKYGVAKKAHIKAVKVLRSNGSGSMSDVVKGVEFAAESHAGE | 38600
66 | HGTLCDIYLVIILKCCGDDDNSVSLVEGIALAPSSARSNAFERVGKFGGGPES | 46900
67 | HHDNVNPTIPPPDNYILNNENDDGLDNLLGMDYYNIDDLLTQELRDLDIPLVP | 140000
68 | HHFVCAFYFQDSWGLGLMKRLLIVVCLLLATYVFPLPLTSPPWSFIWKQSWVI | 48300
69 | HHFVWERCLPDQMFVFAEDDIAHILNVTISSLELPMKTRQEIWVPSNVLFLCA | 54200
70 | HHLHAFLLGLGFLFSLLICVSSSCLVSSSLLRLLLLLPRFARWIRFLLYILLL | 64400
71 | HHLRLHWFADVLNYRARDTLFSILRIVSHIRSLRLFAVYLLRWERQRHEAKTV | 49800
72 | HHLSSQLVFSRSRFFYSSFTSWINVFLVISLIVFLLSILLLFLIIFLLHYIFF | 24800
73 | HHLVITHVILFCLITFRCFTVIVRSIYERWHIKSAVIVLDLGSSWGLAANVPW | 43600
74 | HHTHHSSSTDWSRAFRKWSVRLLLAIAFPTTYLLGAAMPPKIILMLYPRYSPP | 39100
